Test results as given in the supplement of paper PMC10567573.

B1: ZMYND11 (parent)
chain: YCSIKCQQEHWHAEHKRTCRRKR
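Note: lentivirally expressed fusions sorted by FACS into six bins by GFP to DsRed ratio, PSI derived from sequencing read proportions per bin multiplied by bin number.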

Variants of: B1
Experiment: protein stability index of a GFP-peptide fusion (GPS, HEK-293T) (PSI 1-6); higher = more stable
Conditions: c terminus: native
YCSIKCQQEHWHAEHKRTLRRKR [C19L] showed a protein stability index of 2.83. In the case of YCSIKCQQEHWHAEHKRTKRRKR [C19K], the protein stability index is reported as 2.3. In the case of YCSIKCQQEHWHAEHKRTWRRKR [C19W], the protein stability index is reported as 1.98. YCSIKCQQEHWHAEHKRTMRRKR [C19M] gave a protein stability index of 2.41. Work on YCSISCQQEHWHAEHKRTCRRKR [K5S] yielded a protein stability index of 2.22. YCSIGCQQEHWHAEHKRTCRRKR [K5G] gave a protein stability index of 2.09. YCSITCQQEHWHAEHKRTCRRKR [K5T] gave a protein stability index of 2.6. In the case of YCSIKCQQEEWHAEHKRTCRRKR [H10E], the protein stability index is reported as 2.18. Variant YCSIKCQQETWHAEHKRTCRRKR [H10T] has a protein stability index of 2.07. In the case of YCSIKCQQEKWHAEHKRTCRRKR [H10K], the protein stability index is reported as 2.12. YCSIKCEQEHWHAEHKRTCRRKR [Q7E] gave a protein stability index of 2.42. With YCSIKCPQEHWHAEHKRTCRRKR [Q7P] the protein stability index was 2.2. YCSIKCNQEHWHAEHKRTCRRKR [Q7N] gave a protein stability index of 2.38. In the case of YCSCKCQQEHWHAEHKRTCRRKR [I4C], the protein stability index is reported as 2.67. For YCSMKCQQEHWHAEHKRTCRRKR [I4M], the protein stability index was 1.83. In the case of YCNIKCQQEHWHAEHKRTCRRKR [S3N], the protein stability index is reported as 2.85. Variant YCSIKCQQEHWHAEHKRYCRRKR [T18Y] has a protein stability index of 2.45. With YCSIKCQQEHWHAEHKRFCRRKR [T18F] the protein stability index was 2.47. In the case of YCSIKCQQEHWHAEHKRMCRRKR [T18M], the protein stability index is reported as 1.91. With YCSIKMQQEHWHAEHKRTCRRKR [C6M] the protein stability index was 1.9. With YCSIKDQQEHWHAEHKRTCRRKR [C6D] the protein stability index was 2.69. Work on YCSIKSQQEHWHAEHKRTCRRKR [C6S] yielded a protein stability index of 2.38. For YCSIKKQQEHWHAEHKRTCRRKR [C6K], the protein stability index was 2.69. For YCSIKQQQEHWHAEHKRTCRRKR [C6Q], the protein stability index was 1.59. In the case of YCSIKTQQEHWHAEHKRTCRRKR [C6T], the protein stability index is reported as 1.87. For YCSIKPQQEHWHAEHKRTCRRKR [C6P], the protein stability index was 2.57. YGSIKCQQEHWHAEHKRTCRRKR [C2G] showed a protein stability index of 2.8. For YQSIKCQQEHWHAEHKRTCRRKR [C2Q], the protein stability index was 1.79. YPSIKCQQEHWHAEHKRTCRRKR [C2P] showed a protein stability index of 2.2. For YMSIKCQQEHWHAEHKRTCRRKR [C2M], the protein stability index was 3.01. YCSIKCQQEHWHAEHKETCRRKR [R17E] gave a protein stability index of 2.65. Work on YCSIKCQQEHWHAEHKTTCRRKR [R17T] yielded a protein stability index of 2.25. YCSIKCQQEHWHAEHKNTCRRKR [R17N] gave a protein stability index of 2.28. In the case of YCSIKCQQEHWHAEHKCTCRRKR [R17C], the protein stability index is reported as 3.29. YCSIKCQQCHWHAEHKRTCRRKR [E9C] showed a protein stability index of 3.31. YCSIKCQQLHWHAEHKRTCRRKR [E9L] showed a protein stability index of 2.07. Variant YCSIKCQQMHWHAEHKRTCRRKR [E9M] has a protein stability index of 1.53. In the case of YCSIKCQQIHWHAEHKRTCRRKR [E9I], the protein stability index is reported as 2.11. Variant YCSIKCQQEHWNAEHKRTCRRKR [H12N] has a protein stability index of 2.9. Work on YCSIKCQQEHWKAEHKRTCRRKR [H12K] yielded a protein stability index of 2.42. YCSIKCQQEHWSAEHKRTCRRKR [H12S] gave a protein stability index of 2.22. Work on YCSIKCQQEHAHAEHKRTCRRKR [W11A] yielded a protein stability index of 2.98. YCSIKCQQEHRHAEHKRTCRRKR [W11R] gave a protein stability index of 2.96. For YCSIKCQQEHWHASHKRTCRRKR [E14S], the protein stability index was 2.48. YCSIKCQQEHWHAIHKRTCRRKR [E14I] gave a protein stability index of 1.95. For YCSIKCQQEHWHAVHKRTCRRKR [E14V], the protein stability index was 2.13. With WCSIKCQQEHWHAEHKRTCRRKR [Y1W] the protein stability index was 2.29. For ECSIKCQQEHWHAEHKRTCRRKR [Y1E], the protein stability index was 2.91. Variant HCSIKCQQEHWHAEHKRTCRRKR [Y1H] has a protein stability index of 3.9. In the case of VCSIKCQQEHWHAEHKRTCRRKR [Y1V], the protein stability index is reported as 3.71. For YCSIKCQQEHWHEEHKRTCRRKR [A13E], the protein stability index was 2.16. In the case of YCSIKCQQEHWHWEHKRTCRRKR [A13W], the protein stability index is reported as 1.32. YCSIKCQQEHWHAEHKRTCRLKR [R21L] showed a protein stability index of 2.2. YCSIKCQQEHWHAEHKRTCRFKR [R21F] gave a protein stability index of 2.45. YCSIKCQQEHWHAEHKRTCRAKR [R21A] gave a protein stability index of 2.2. With YCSIKCQQEHWHAEHKRTCRCKR [R21C] the protein stability index was 2.15. Variant YCSIKCQQEHWHAEHKRTCCRKR [R20C] has a protein stability index of 2. YCSIKCQQEHWHAEHIRTCRRKR [K16I] gave a protein stability index of 2.18. Variant YCSIKCQQEHWHAEHMRTCRRKR [K16M] has a protein stability index of 2.16. With YCSIKCQQEHWHAEHHRTCRRKR [K16H] the protein stability index was 2.84. YCSIKCQQEHWHAEHWRTCRRKR [K16W] showed a protein stability index of 1.74. YCSIKCQYEHWHAEHKRTCRRKR [Q8Y] showed a protein stability index of 2.08. YCSIKCQPEHWHAEHKRTCRRKR [Q8P] gave a protein stability index of 2.46. With YCSIKCQAEHWHAEHKRTCRRKR [Q8A] the protein stability index was 2.33. YCSIKCQQEHWHAELKRTCRRKR [H15L] showed a protein stability index of 3.01. YCSIKCQQEHWHAEVKRTCRRKR [H15V] gave a protein stability index of 1.24. In the case of YCSIKCQQEHWHAERKRTCRRKR [H15R], the protein stability index is reported as 2.18. For YCSIKCQQEHWHAEAKRTCRRKR [H15A], the protein stability index was 1.9. Work on YCSIKCQQEHWHAEEKRTCRRKR [H15E] yielded a protein stability index of 2.79. YCSIKCQQEHWHAENKRTCRRKR [H15N] showed a protein stability index of 2.4. YCSIKCQQEHWHAEYKRTCRRKR [H15Y] showed a protein stability index of 2.01. Work on YCSIKCQQEHWHAEHKRTCRRFR [K22F] yielded a protein stability index of 2.13. Work on YCSIKCQQEHWHAEHKRTCRRLR [K22L] yielded a protein stability index of 2.02. Variant YCSIKCQQEHWHAEHKRTCRRNR [K22N] has a protein stability index of 1.37. YCSIKCQQEHWHAEHKRTCRRKN [R23N] showed a protein stability index of 2.09. For YCSIKCQQEHWHAEHKRTCRRKS [R23S], the protein stability index was 2.64. For YCSIKCQQEHWHAEHKRTCRRKQ [R23Q], the protein stability index was 3.2.
